Series [1] addresses T1, HMO2 (NHP10) (Saccharomyces cerevisiae, UniProt Q03435 1-203).
T1 sequence: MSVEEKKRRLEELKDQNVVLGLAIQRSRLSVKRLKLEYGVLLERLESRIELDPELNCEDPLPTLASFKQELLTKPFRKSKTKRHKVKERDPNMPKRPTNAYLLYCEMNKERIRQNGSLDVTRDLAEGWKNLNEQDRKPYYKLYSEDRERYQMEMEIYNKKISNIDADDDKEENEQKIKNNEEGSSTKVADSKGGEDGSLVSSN
The series can be described thus: EMSA.

The target in series [2] is T1, HMO2 (NHP10). The series can be described thus: EMSA. This is another data set of the same source.

Read-outs that look alike come from different tables or passages of the source.

B1: 50 bp duplex (dsDNA)
DNA 1: TTCAATCCCCGTCTGTCCCCCGATCCCCTGCTCGTAGGCGTGCTTGACCG
DNA 2: CGGTCAAGCACGCCTACGAGCAGGGGATCGGGGGACAGACGGGGATTGAA
B1: the binding result with HMO2 (NHP10) [1] is recorded as “no binding”.

B2: 50 bp duplex with tandem AA and CT loops (dsDNA)
DNA 1: ACAGTGGAGTAGGCTACACCTACTCTTTGTAAGAATTTTGCAAAAAGTAC
DNA 2: GTACTTTTTGCAAAATTCAAACAAAGAGTTCGTGTAGCCTACTCCACTGT
For B2, the binding result in the series with HMO2 (NHP10) [2] is “binds”.

(Values after article PMC2770664.)
